# Reference: US20130156761A1
# Biological target: human CX3CR1 with FLAG tag at N-terminus, stably expressed on HEK293T cells (Multispan) (human) (UniProt P49238)
# Assay: cell-based or functional assay
# Chain of human CX3CR1 with FLAG tag at N-terminus, stably expressed on HEK293T cells (Multispan) (human) (P49238 whole entry): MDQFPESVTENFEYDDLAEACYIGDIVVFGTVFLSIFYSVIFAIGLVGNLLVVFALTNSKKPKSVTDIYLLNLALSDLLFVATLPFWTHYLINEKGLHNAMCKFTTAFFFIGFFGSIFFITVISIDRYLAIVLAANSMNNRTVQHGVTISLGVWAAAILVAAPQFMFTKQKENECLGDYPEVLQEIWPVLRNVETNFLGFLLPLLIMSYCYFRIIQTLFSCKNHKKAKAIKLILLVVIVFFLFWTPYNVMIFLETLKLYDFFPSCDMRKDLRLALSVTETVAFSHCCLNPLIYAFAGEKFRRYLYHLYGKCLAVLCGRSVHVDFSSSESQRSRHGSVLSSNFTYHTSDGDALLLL
substance,measurement,value
"CX3CL1 (control agonist, Peprotech Cat#300-31) (from UniProt P78423 25-100) (ligand)",EC80 of calcium flux,0.04 µM
